In the DeepSol protein solubility set:

Assay: soluble on expression in E. coli; label from the status in PepcDB or PDB records

Sequence	soluble on expression in E. coli
MGSDKIHHHHHHMQEIFAVLPETIRQLLKKLPPSIQKDVEEIRIRVHRPLEVIVNHLPHYPEHQGCEYVVTTKDAQFLLNQLSAYSIYAFEEELKRGFITMAGGHRVGLAGKVTLEKGYVKTVRDISSFNIRVAKQKIGTAEPLISHVYQKGWLNTLLIGPPQSGKTTLLRDLARLVSVGWSRKGIPPLKVGIVDERSEIAAAVKGVPQHELGMRVDVLDGCPKAEGMMMMIRSMSPDVLIVDEIGRKEDCVAIQEALHAGVKVMTTAHGYELEEVSKRPAIRELLEIEAFDRCIELERRAKPGVVRRIRNAKAKDVGYVS	not soluble
MGSDKIHHHHHHMFNTAVKILYRSLIELTNHRLSSYLIKGFCESKISKPVIPLFSKHFRLNWDDVDGTAADYGSLSELFIRQINLERRPVSKEAHAVVSPVDGVVQTVGIINPNQTFTVKGKDYSFAELTGCKSADHQYNGGYFVVLYLSPRHYHRFHSPISCRYQKLAELGNRSYPVNQLGLKYGKDVLSKNYRFVYELNSGSRNVLMIPVGAMNINSIVQTNTRTELEIGEELGYFSFGSTVILVFEKDAFQPSAHLAEGQEVQVGELIGYEE	not soluble
SNIMDFNVKKLAADAGTFLSRAVQFTEEKLGQAEKTELDAHLENLLSKAECTKIWTEKIMKQTEVLLQPNPNARIEEFVYEKLDRKAPSRINNPELLGQYMIDAGTEFGPGTAYGNALIKCGETQKRIGTADRELIQTSALNFLTPLRNFIEGDYKTIAKERKLLQNKRLDLDAAKTRLKKAKAAETRNSSEQELRITQSEFDRQAEITRLLLEGISSTHAHHLRCLNDFVEAQMTYYAQCYQYMLDLQKQLGSFPSNYLSNNNQTSVTPVPSVLPNAIGSSAMASTSGLVITSPSNLSDLKECSGSRKARVLYDYDAANSTELSLLADEVITVFSVVGMDSDWLMGERGNQKGKVPITYLELLN	not soluble
MKPGIVKFALNVWPPFWGAGIKILHISEDFRTVKVRLKLRWWNKNANRTQYGGSIFSLTDPIYSLMLMGILREEYYVWDKEASINFIKPGQSDLFAEFEITDGMLDEIYQMTRNGEKCFPEFITHVKDKQGNVVSEVQRKLYVRKLEHHHHHH	soluble
MGSDKIHHHHHHMKGVTLRGLEVFEALSRTGSVAQASTLTGLSQPAVSQQLRNLEQALGTDLVDHGRRPMVLTPAGRAFLPRAETVLSQLRLAQSELTVMDLTHLSTLSMGLIDDFDNDLTPRLATLLADSLTKCRFKLITAPSHEISEAMKARRLHIAVAATSGEVHDGIIEYPLVRDPFILVAPRGVVSKGGDMLASLQGLPLLRYAREQLIGRQIEAHLARQKLDFEERFEIGSHLALMAMVARRLGWAVTTPLGFMRAERFHDEVEAFALPFAAFSRRISLFAGADWADRVPRDVAETMRRLVQSQIIDPAVARLPWLGGELRVIES	not soluble
MSVIIVGGGMAGATLALAISQFSHGTLPVHLIEAKAPEADGHPGFDARAIALAAGTCQQLARIGVWLAISDCATAINTVHVSDRGHAGFVTLDAQDYSLAALGHVAELHDIGLRLFALLRKAPGVTLHCPERVASVSRTQQQVNVTLENGNVIAGSVLVAANGTHSALASACGVDWHQEPYEQLAVIANVATAIPHQGRAFERFTPNGPLAMLPMSHGRCSLVWCHPLDQRDEVLSWSDAQFCHALQAAFGWRLGRITQAGKRSAYPLALTTAAKVFTHRTVVVGNAAQTLHPIAGQGFNLGLRDVMSLAETLVAAQDAGEDIGAWHVLSRYQQRRQVDRDTTIGVTNGLVHLFANRWAPLVIGRNIGLMAMELLPPARDALAQRTLGWVARLEHHHHHH	soluble
DPVSDITDLNYWKTPEQFDSFVFGLHSRFRSHSWNMFLLGEARSDVFGGIPFGGEATQGMERFPYNTLNAENPGISGFGDLYQNINQMNLFISRTLHTDVLTESARNYYLGQVYGLRAYYMYQLYRSWGDVVFTEEPSLGFEVGKLAKAATPAAEIFEQVKKDIESSLSYFGSDYTIKEKKSLWSKAATLMLKADVYLWSAHRDGGEGDARTAKNALVDIQNNISRSNLDLMDTYQGVFAYDNKGNKEIIFTIHNELFEYNLWNGNNDLFPQADYLGKFYNADGTLINTSVENNFGIMRLMVKLENFKKFLPGDTRRDVTLKDVYNKVENGKLELVGVYPHKYWGVMNGSTRVRCDDYPIYRYSDLLLMLAEAKVLLGEDPATEINRVRRRAFGDAYDASTVGFPNQEVDKRPADAVLQERLFEFMLEGKRWYDLRRFGDSYVLDYTPAEPARLLWPINQGALTNNPLLKQTVGY	soluble
MGSDKIHHHHHHMAIISEHHIFLSDDANVGLQTRLKDAITRAIWDGRFAPGDRLPATRALARHLGISRITVSLAYDALLSTGYIVSIARSGYFVASDAPTRMEIVTPGKGDARDRLDWAARLGPVPPALGAQATPADWRRFRYPFIFGEPDVARFPVDDWRDCVRRGLGKRHFEQVADDASDRDDPFLVEQIVRRSVSGRGVAATVDEVLVTAGAQNALWLMVQVLFGGQGGEVAMEDPGYPELRNLLRQQRLTIHPVPVDRDGLKVDRIPEGVRAVFVTPSHQAPTGATMSMARRQALLERAEAEDFVVIEDDYDYEMSYASPSLPALKSLDQRGRVIYIGSFSKSIFPGLRLGYLTADARVVEHARAIRTLSERHPPGLTQRTVAYFLSEGHYNSHSRRMRMRMARRNEVLREALAEHGLTPALRRATGGTTLWLLGPEDLDADALAVSLRDKSVLIEAGSAFYAGGDAPRNRVRLGFATIETARIADGVALIAEAIREQAPTPR	not soluble
MKKYLNQNVYDALIERLHFLFNDFPIVYISFSGGKDSGLLLNILLDFRDKYYPDREIGVFHQDFEAQYSLTTKYVQETFTSLEGRKKVSLYWVCLPMATRTALSSYEMFWYPWDDKTEDIWVRPMPSQDYVINLENNSITTYRYKMNQEDLAKQFGRWYKQIHGNQKTVCILGNRASESLHRYSGFINKKYGYQKECWITKQFKDVWTASPLYDWSVEDIWHAYYKFSYSYNELYDLFYKAGLKPSQMRVASPFQDYAVDSLNLYRIIDQETWVKLLGRVQGVNFSNIYGRTKAMGYKSIALPKGHSWKSYTQFLLSTLPVRLRNNYVRKFNKSIDFWHKTGGGLAEETINELIEKGYRIARNGISNYTSFKHSRVIFLDQIPDDTDDIVTTKDIPSWKRMCFCILKNDHICRTMGFGLTREQQKIVAFLKEKYKTSLKELESE	not soluble
MVVKSLVYGIYPRSERLRKAYNRWERGLVGNEEIRRTISEEKDRFYEYVKSVGISEFTDPLFNWHDIFRPIALSVSGVTLGPLKRYLETNTFYREPEISGHITLQRKLDTFDLLEENPPLPLFALAKGSSIFLPTPSSFYKMSSVKANIGAEELYKDLVNVYSDIIDIFKPRSLVLYEVFPYNGDNLSYLESLNQKISVHLLTKGKISEKNFNGIKHKFESIISDDHPEFLKNYAKYYGFKIIDVNKTKVEDPNADYGIENYEDAIVTSNDYFDFLPREIADIKVEVLGKVGEAAALEHHHHHH	not soluble
MGSSHHHHHHSSGLVPRGSHMVTGKAFPYVVVTGIAMTTALATDAETTWKLLLDRQSGIRTLDDPFVEEFDLPVRIGGHLLEEFDHQLTRIELRRMGYLQRMSTVLSRRLWENAGSPEVDTNRLMVSIGTGLGSAEELVFSYDDMRARGMKAVSPLTVQKYMPNGAAAAVGLERHAKAGVMTPVSACASGAEAIARAWQQIVLGEADAAICGGVETRIEAVPIAGFAQMRIVMSTNNDDPAGACRPFDRDRDGFVFGEGGALLLIETEEHAKARGANILARIMGASITSDGFHMVAPDPNGERAGHAITRAIQLAGLAPGDIDHVNAHATGTQVGDLAEGRAINNALGGNRPAVYAPKSALGHSVGAVGAVESILTVLALRDQVIPPTLNLVNLDPEIDLDVVAGEPRPGNYRYAINNSFGFGGHNVAIAFGRY	soluble
MTNLNYQQTHFVMSAPDIRHLPSDTGIEVAFAGRSNAGKSSALNTLTNQKSLARTSKTPGRTQLINLFEVADGKRLVDLPGYGYAEVPEEMKRKWQRALGEYLEKRQSLQGLVVLMDIRHPLKDLDQQMIEWAVDSNIAVLVLLTKADKLASGARKAQLNMVREAVLAFNGDVQVETFSSLKKQGVDKLRQKLDTWFSEMQPVEETQDGE	soluble
MGAGESSMALEKHLFDLKFAAKQLEKNAQRCEKDEKVEKDKLTAAIKKGNKEVAQVHAENAIRKKNEAVNYIKMAARIDAVAARVQTAATQKRVTASMSGVVKAMESAMKSMNLEKVQQLMDRFERDFEDLDVTTKTMEKTMDGTTVLNAPKSQVDALIAEAADKAGIELNQELPSNVPTALPTGTQAVSEDKDLTERLAALRNM	not soluble
MGHHHHHHSHKRVVLKLSGEALAGEKGFGINPVIIKSVAEQVAEVAKMDCEIAVIVGGGNIWRGKTGSDLGMDRGTADYMGMLATVMNALALQDSLEQLDCDTRVLTSIEMKQVAEPYIRRRAIRHLEKKRVVIFAAGIGNPYFSTDTTAALRAAEVEADVILMGKNNVDGVYSADPKVNKDAVKYEHLTHIQMLQEGLQVMDSTASSFCMDNNIPLTVFS	not soluble
GAMGSMSVSEANGTETIKPPMNGNPYGPNPSDFLSRVNNFSIIESTLREGEQFANAFFDTEKKIQIAKALDNFGVDYIELTSPVASEQSRQDCEAICKLGLKCKILTHIRCHMDDARVAVETGVDGVDVVIGTSQYLRKYSHGKDMTYIIDSATEVINFVKSKGIEVRFSSEDSFRSDLVDLLSLYKAVDKIGVNRVGIADTVGCATPRQVYDLIRTLRGVVSCDIECHFHNDTGMAIANAYCALEAGATHIDTSILGIGERNGITPLGALLARMYVTDREYITHKYKLNQLRELENLVADAVEVQIPFNNYITGMCAFTHKAGIHAKAILANPSTYEILKPEDFGMSRYVHVGSRLTGWNAIKSRAEQLNLHLTDAQAKELTVRIKKLADVRTLAMDDVDRVLREYHADLSDADRITKEASA	soluble
MEVSTSYCTPAVNFKYGSFQDSDVSMREDDLFRMGSYNSQGYYADGTHLDGSIGEEDETSSGSNDQHMDFEEDDFDMESSMTEDLVDEDEEEEDEEDNDEWTNQKRTDNQNSVAYYAAMEMLRIRFPFQSIAIRISDFCCLQEKDLLNDTMIDFYLNHIVEHVLPDSNGSNVTVLPSIFWHNLSLRQHAFDSEDEKMMSDEQKMDLKFGDLHDFVADFDLQDFDYIVVPVNEWEHWSLAVICHPFTAQARTVIFDSQLTADLNNLQNMATLIESFMKYSYEKRTGNAMPFPLPCILPQRMPQQTNNFDCGIFIAEFARRFLLSPPKDPATISLCFHPLATLL	not soluble
AIATSCHIAEEHIQKVAIFGGTHGNELTGVFLVKHWLENGAEIQRTGLEVKPFITNPRAVKKCTRYIDCDLNRIFDLENLGKKMSEDLPYEVRRAQEINHLFGPKDSEDSYDIIFDLHNTTSNMGCTLILEDSRNNFLIQMFHYIKTSLAPLPCYVYLIEHPSLKYATTRSIAKYPVGIEVGPQPQGVLRADILDQMRKMIKHALDFIHHFNEGKEFPPCAIEVYKIIEKVDYPRDENGEIAAIIHPNLQDQDWKPLHPGDPMFLTLDGKTIPLGGDCTVYPVFVNEAAYYEKKEAFAKTTKLTLNAKSIRCCLH	soluble
MNEIMLETKNLCKTFRQQSVVQNISLSVPKYAIYGLLGPNGAGKSTTLKMITGMLIPTSGEIYFDGHKWTRHDLHSIGALIDSPPLYENLTARENLQVRTTVLGLPKSRIDEVLHVVELENTEKKKAKDFSMGMKQRLGIAIALLNHPKFLILDEPMNGLDPFGIQELRKLILSFPGKGITVILSSHILSEVSQIADHVGIISGGVLGYQGKLNKNDDLEDLFVQVAGKYRREA	not soluble
